Measurements taken from patent US20170114347.

Legend:
Experiment in all cases: cell_activity
[1] = test system: IFNa1 TALE-VP16 (Xanthomonas); conditions: CITED; cited from earlier work
[2] = test system: NTF3 TALE-VP16 (Miller 2011) (Xanthomonas); conditions: CITED; HEK293; cited from earlier work
[3] = test system: IFNb1 TALE-VP16 (Xanthomonas); conditions: CITED; cited from earlier work
[4] = test system: TALE-activator Ntf3-5 (Xanthomonas); conditions: NTF3 mRNA in 293 cells; p65 version weaker
[5] = test system: KLF4 TALE-VP16 (Xanthomonas); conditions: CITED; cited from earlier work
[6] = test system: ZC3H10 TALE-VP64 (Xanthomonas); conditions: CITED; U-2OS; cited from earlier work
[7] = test system: TALE-activator Ntf3-1 (Xanthomonas); conditions: NTF3 mRNA in 293 cells; weakest about 1000-fold; p65 version weaker
[8] = test system: PUMA TALE-VP16 (Xanthomonas); conditions: CITED; cited from earlier work
[9] = test system: OSGIN2 TALE-VP64 (Xanthomonas); conditions: CITED; U-2OS; cited from earlier work
[10] = test system: SOX2 TALE-VP16 (Xanthomonas); conditions: CITED; cited from earlier work
[11] = test system: TALE-activator Ntf3-2 (Xanthomonas); conditions: NTF3 mRNA in 293 cells; p65 version weaker
[12] = test system: TALE-activator Ntf3-4 (Xanthomonas); conditions: NTF3 mRNA in 293 cells; p65 version weaker
[13] = test system: TALE-activator Ntf3-3 (Xanthomonas); conditions: NTF3 mRNA in 293 cells; p65 version weaker

TGGAAAGTGGCCCAGAAGCAT (double strand) [IFNa1 site]
activity (fold activation) [1]: 3.1

TGGAGCCATCTGGCCGGGT (double strand) [NTF3 site]
activity (fold activation) [2]: 30

TCTCATATAAATAGGCCAT (double strand) [IFNb1 site]
activity (fold activation) [3]: 3.5

TCCCTCAATCTGGGAAAG (double strand) [Ntf3-5 site]
activity (fold activation (approx.)) [4]: > 1000

TTCTTACTTATAAC (double strand) [KLF4 site]
activity (fold activation) [5]: 2.2

TACCATATCCCATCCAACTC (double strand) [ZC3H10 site]
activity (fold activation) [6]: 1.3

TTCTGTTCACGGGACTCA (double strand) [Ntf3-1 site]
activity (fold activation (approx.)) [7]: > 1000

TACTTGGAGGCAGTCAAGT (double strand) [PUMA site]
activity (fold activation) [8]: 1.5

TCCTCCCCACCTTTAATTTT (double strand) [OSGIN2 site]
activity (fold activation) [9]: 4.8

TTTATTCCCTGACA (double strand) [SOX2 site]
activity (fold activation) [10]: 5.5

TCCGAACAGCTCCGCGCA (double strand) [Ntf3-2 site]
activity (fold activation (approx.)) [11]: > 1000

TACGCCTCAGACCTGATC (double strand) [Ntf3-4 site]
activity (fold activation (approx.)) [12]: > 1000

TTCCCCTGCTGGGTAGTG (double strand) [Ntf3-3 site]
activity (fold activation (approx.)) [13]: > 1000
